Assay results published in the Immune Epitope Database (IEDB).

Tests used:
Assay in all cases: IEDB peptide-MHC binding, purified MHC/competitive/radioactivity; filed as Kd, often an IC50 or EC50 that approximates it; ≥ and ≤ were set here for values at or beyond the usual limits of such assays
HLA-A*11:01 = target: HLA-A*11:01
HLA-A*33:01 = target: HLA-A*33:01
HLA-A*31:01 = target: HLA-A*31:01
HLA-A*68:01 = target: HLA-A*68:01
HLA-A*03:01 = target: HLA-A*03:01
[1] = source organism: Vaccinia virus WR
[2] = source organism: Lassa virus Josiah
[3] = source organism: SARS coronavirus Tor2

| Sequence | Kd (HLA-A*11:01; [1]) | Kd (HLA-A*33:01; [1]) | Kd (HLA-A*31:01; [1]) | Kd (HLA-A*68:01; [1]) | Kd (HLA-A*03:01; [1]) | also measured |
| --- | --- | --- | --- | --- | --- | --- |
| GFMRFFQLLR | 937 nM | 86.3 nM | 53.7 nM | 2410 nM | 526 nM |  |
| GLSETGFMR | 2710 nM | 155 nM | 85.5 nM | 2130 nM | 16300 nM |  |
| GTSNWTGNY | 1.06 nM | ≥ 77700 nM | ≥ 77900 nM | 3720 nM | 11.5 nM |  |
| HLKVALYRR | 9610 nM | 9.72 nM | 0.197 nM | 67.1 nM | 1190 nM |  |
| HSVFKGFSDK | 13.5 nM | 14600 nM | 1420 nM | 52 nM | 11.6 nM |  |
| ICKMPLPTK |  |  |  |  |  | Kd (HLA-A*11:01; [2]): 712 nM; Kd (HLA-A*33:01; [2]): ≥ 47400 nM; Kd (HLA-A*31:01; [2]): 19800 nM; Kd (HLA-A*68:01; [2]): 17200 nM; Kd (HLA-A*03:01; [2]): 891 nM |
| IICEDAMYY | 196 nM | ≥ 77700 nM | ≥ 61400 nM | 3660 nM | 2360 nM |  |
| IIMRCWLCWK |  |  |  |  |  | Kd (HLA-A*11:01; [3]): 0.426 nM; Kd (HLA-A*33:01; [3]): 198 nM; Kd (HLA-A*31:01; [3]): 14.4 nM; Kd (HLA-A*68:01; [3]): 0.903 nM; Kd (HLA-A*03:01; [3]): 1.65 nM |
| ILHAYCGIK | 582 nM | ≥ 33800 nM | 2620 nM | 1860 nM | 32.8 nM |  |
| ILSYIYSEIK | 62.1 nM | ≥ 70000 nM | ≥ 37000 nM | 1240 nM | 38.8 nM |  |
| ILTYNKTSK | 1260 nM | ≥ 20100 nM | 1620 nM | 442 nM | 45.8 nM |  |
| KSDAKRNSK | 887 nM | ≥ 77700 nM | 1850 nM | ≥ 77700 nM | 1150 nM |  |
| LFCLLNRYFR |  |  |  |  |  | Kd (HLA-A*11:01; [3]): 550 nM; Kd (HLA-A*33:01; [3]): 36.1 nM; Kd (HLA-A*31:01; [3]): 12.9 nM; Kd (HLA-A*68:01; [3]): 251 nM; Kd (HLA-A*03:01; [3]): 1240 nM |
| LFKRERDAIK | ≥ 69800 nM | 8280 nM | 1430 nM | ≥ 35500 nM | ≥ 30000 nM |  |
| LFVKKMLPK | 239 nM | ≥ 33200 nM | 1440 nM | 470 nM | 1510 nM |  |
